Results: IntAct's records for PubMed 28691929

B1: E3 ubiquitin-protein ligase RFWD3 (Homo sapiens), Q6PCD5 (parent)
chain: MAHEAMEYDVQVQLNHAEQQPAPAGMASSQGGPALLQPVPADVVSSQGVPSILQPAPAEVISSQATPPLLQPAPQLSVDLTEVEVLGEDTVENINPRTSEQHRQGSDGNHTIPASSLHSMTNFISGLQRLHGMLEFLRPSSSNHSVGPMRTRRRVSASRRARAGGSQRTDSARLRAPLDAYFQVSRTQPDLPATTYDSETRNPVSEELQVSSSSDSDSDSSAEYGGVVDQAEESGAVILEEQLAGVSAEQEVTCIDGGKTLPKQPSPQKSEPLLPSASMDEEEGDTCTICLEQWTNAGDHRLSALRCGHLFGYRCISTWLKGQVRKCPQCNKKARHSDIVVLYARTLRALDTSEQERMKSSLLKEQMLRKQAELESAQCRLQLQVLTDKCTRLQRRVQDLQKLTSHQSQNLQQPRGSQAWVLSCSPSSQGQHKHKYHFQKTFTVSQAGNCRIMAYCDALSCLVISQPSPQASFLPGFGVKMLSTANMKSSQYIPMHGKQIRGLAFSSYLRGLLLSASLDNTIKLTSLETNTVVQTYNAGRPVWSCCWCLDEANYIYAGLANGSILVYDVRNTSSHVQELVAQKARCPLVSLSYMPRAASAAFPYGGVLAGTLEDASFWEQKMDFSHWPHVLPLEPGGCIDFQTENSSRHCLVTYRPDKNHTTIRSVLMEMSYRLDDTGNPICSCQPVHTFFGGPTCKLLTKNAIFQSPENDGNILVCTGDEAANSALLWDAASGSLLQDLQTDQPVLDICPFEVNRNSYLATLTEKMVHIYKWE

Variants of: B1
Settings: with rfa2_human RPA2, P15927
rfa2_human RPA2, P15927, sequence (P15927 whole entry): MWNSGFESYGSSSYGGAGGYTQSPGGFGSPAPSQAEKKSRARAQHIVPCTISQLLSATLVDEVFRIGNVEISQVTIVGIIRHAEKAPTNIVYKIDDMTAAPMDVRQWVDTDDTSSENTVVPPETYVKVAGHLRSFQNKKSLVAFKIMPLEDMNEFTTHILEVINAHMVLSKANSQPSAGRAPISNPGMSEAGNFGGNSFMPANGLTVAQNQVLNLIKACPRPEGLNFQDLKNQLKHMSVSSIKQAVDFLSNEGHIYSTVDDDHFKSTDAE
With I639K the “effect of a mutation on the interaction” value was “decreasing interaction strength”.

Variants of: B1
Settings: with rfa2_human RPA2, P15927
Remark: another data set of the same source
In the case of I639K, the “effect of a mutation on the interaction” value is reported as “disrupting interaction strength”.
